Here are results for two molecules from PMC4970318.

The target of assay [1] is Claudin23 10-mer (Homo sapiens).
The target of a further assay is FD2. Briefly: competition.
In another assay the target is FD1. Briefly: competition.
A further assay deals with FD3. The assay is described as follows: competition.
In a further assay the target is RD3. Briefly: competition.
A further assay concerns the target RD1. Briefly: competition.
Assay [2] deals with LPA2 6-mer (Homo sapiens). Briefly: competition.
The next assay has as its target RD2. Briefly: competition.
The target in assay [3] is LPA2 10-mer (Homo sapiens).
The target of the next assay is CAT. Briefly: competition.
Another assay addresses CST. Briefly: competition.

B1: MAGI-3 PDZ6 (M3P6) PDZ6, Q5TCQ9 (protein)
chain: GCYPVELERGPRGFGFSLRGGKEYNMGLFILRLAEDGPAIKDGRIHVGDQIVEINGEPTQGITHTRAIELIQAGGNKVLLLLRPGTGLI
Broadly, the Kd is the free concentration of one partner at which half of the binding sites on the other are occupied at equilibrium, for simple one-to-one binding. A high value points to weaker binding. By Ki is commonly meant the dissociation constant of the complex between target and ligand, obtained from inhibition or displacement. Lower therefore signals higher affinity. As to B1, the Kd in assay [1] was 3.6 µM. Moreover, the Ki with FD2 is > 1000 µM; with FD1 it was 600 µM; in the assay with FD3 it was > 1000 µM; with RD3, 6.8 µM; in the assay with RD1, 1.8 µM; in [2], 47.4 µM. Also, the Ki in the assay with RD2 stood at 2.7 µM.

B2: NHERF-2 PDZ2 (N2P2) PDZ2, Q15599 (protein)
chain: LRPRLCHLRKGPQGYGFNLHSDKSRPGQYIRSVDPGSPAARSGLRAQDRLIEVNGQNVEGLRHAEVVASIKAREDEARLLVVDPETD
In the case of B2, the Kd with FD2 8-mer came out at 3.6 µM; in assay [3], 11.5 µM. Besides, the Ki turned out to be 6.8 µM in the assay with FD2; 254 µM with CAT; 14.2 µM with FD1; 9.1 µM in the assay with FD3; 4.6 µM in the assay with RD3; 5.4 µM in the assay with RD1. Moreover, the inhibition constant Ki stood at 28.4 µM in assay [2], 12.5 µM with RD2 and 54.8 µM with CST.
